Experimental data published in publication PMC9482650, “Quantitative fragmentomics allow affinity mapping of interactomes” (Nature Communications, 2022).

Experiments:
Experiment in all cases: holdup assay
Design in all cases: key: below the threshold = too weak to quantify, mostly under pKd 3.1 to 4
Details in all cases: plain residues with an end cap or a label only (N-terminal biotin on a linker: ttds)
LNX1_2, Q8TBB1 = biological target: LNX1_2, Q8TBB1
SYNJ2BP, P57105 = biological target: T1, SYNJ2BP, P57105
T1 sequence (P57105 8-110, limits assumed, looked up): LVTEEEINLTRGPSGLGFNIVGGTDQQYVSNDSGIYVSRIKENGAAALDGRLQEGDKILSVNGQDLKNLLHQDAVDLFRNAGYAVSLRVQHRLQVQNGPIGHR

NHERF3_1, Q5T2W1 = biological target: T2, NHERF3_1, Q5T2W1
T2 sequence (Q5T2W1 4-100, limits assumed, looked up): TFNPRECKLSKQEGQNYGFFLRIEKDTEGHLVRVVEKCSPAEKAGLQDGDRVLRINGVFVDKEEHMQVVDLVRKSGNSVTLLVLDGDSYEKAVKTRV

SCRIB_1, Q14160 = biological target: SCRIB_1, Q14160
Chain of SCRIB_1, Q14160 (Q14160 718-814): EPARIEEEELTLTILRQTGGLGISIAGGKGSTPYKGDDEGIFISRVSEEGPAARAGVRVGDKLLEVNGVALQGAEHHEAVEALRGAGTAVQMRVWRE

DLG5_1, Q8TDM6 = biological target: DLG5_1, Q8TDM6
Chain of DLG5_1, Q8TDM6 (Q8TDM6 617-713): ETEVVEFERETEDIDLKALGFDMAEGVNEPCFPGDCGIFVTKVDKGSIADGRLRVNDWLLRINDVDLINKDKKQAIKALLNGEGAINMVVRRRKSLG

FRMPD2_2, Q68DX3 = biological target: FRMPD2_2, Q68DX3
Chain of FRMPD2_2, Q68DX3 (Q68DX3 944-1038): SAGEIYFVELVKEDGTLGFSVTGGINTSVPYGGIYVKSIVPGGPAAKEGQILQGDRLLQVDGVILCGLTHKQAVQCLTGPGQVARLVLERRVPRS

SNX27, Q96L92 = biological target: SNX27, Q96L92
GRIP2_6, Q9C0E4 = biological target: GRIP2_6, Q9C0E4
Chain of GRIP2_6, Q9C0E4 (Q9C0E4 648-740): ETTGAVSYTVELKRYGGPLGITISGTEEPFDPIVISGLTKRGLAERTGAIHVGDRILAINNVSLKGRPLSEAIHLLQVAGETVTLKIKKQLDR

RHPN1, Q8TCX5 = biological target: T3, RHPN1, Q8TCX5
T3 sequence (Q8TCX5 508-602, limits assumed, looked up): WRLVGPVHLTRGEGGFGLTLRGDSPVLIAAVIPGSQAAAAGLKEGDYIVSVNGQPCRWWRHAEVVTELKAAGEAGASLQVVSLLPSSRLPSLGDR

GIPC2, Q8TF65 = biological target: GIPC2, Q8TF65
Chain of GIPC2, Q8TF65 (Q8TF65 112-203): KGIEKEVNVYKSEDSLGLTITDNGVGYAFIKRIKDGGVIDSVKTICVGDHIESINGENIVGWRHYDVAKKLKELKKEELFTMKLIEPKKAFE

NHERF4_4, Q86UT5 = biological target: NHERF4_4, Q86UT5
Chain of NHERF4_4, Q86UT5 (Q86UT5 464-550): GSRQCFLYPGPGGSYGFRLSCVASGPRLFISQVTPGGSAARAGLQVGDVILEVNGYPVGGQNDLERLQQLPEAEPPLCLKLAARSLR

MAST2, Q6P0Q8 = biological target: MAST2, Q6P0Q8
Chain of MAST2, Q6P0Q8 (Q6P0Q8 1099-1202): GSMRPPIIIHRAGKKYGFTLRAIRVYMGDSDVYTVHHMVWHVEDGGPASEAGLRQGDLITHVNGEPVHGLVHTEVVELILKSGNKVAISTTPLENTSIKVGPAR

APBA3_1, O96018 = biological target: T4, APBA3_1, O96018
T4 sequence (O96018 389-490, limits assumed, looked up): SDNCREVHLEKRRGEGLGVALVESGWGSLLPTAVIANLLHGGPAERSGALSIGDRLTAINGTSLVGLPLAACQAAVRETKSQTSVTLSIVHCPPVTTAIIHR

DLG4_1, P78352 = biological target: DLG4_1, P78352
Chain of DLG4_1, P78352 (P78352 62-152): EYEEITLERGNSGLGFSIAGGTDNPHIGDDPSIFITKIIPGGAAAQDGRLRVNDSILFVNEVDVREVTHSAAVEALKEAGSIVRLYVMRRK

LNX2_3, Q8N448 = biological target: T5, LNX2_3, Q8N448
T5 sequence (Q8N448 463-564, limits assumed, looked up): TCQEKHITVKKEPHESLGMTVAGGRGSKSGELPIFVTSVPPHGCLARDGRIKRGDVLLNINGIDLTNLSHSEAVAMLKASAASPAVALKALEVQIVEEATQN

DLG1_2, Q12959 = biological target: DLG1_2, Q12959
Chain of DLG1_2, Q12959 (Q12959 314-412): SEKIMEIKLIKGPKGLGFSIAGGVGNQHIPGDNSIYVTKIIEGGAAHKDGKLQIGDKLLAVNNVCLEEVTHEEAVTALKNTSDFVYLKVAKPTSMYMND

LRRC7, Q96NW7 = biological target: T6, LRRC7, Q96NW7
T6 sequence (Q96NW7 1440-1537, limits assumed, looked up): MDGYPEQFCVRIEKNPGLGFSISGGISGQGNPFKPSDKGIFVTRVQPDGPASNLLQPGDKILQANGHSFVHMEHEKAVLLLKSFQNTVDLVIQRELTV

DLG4_2, P78352 = biological target: DLG4_2, P78352
Chain of DLG4_2, P78352 (P78352 155-259): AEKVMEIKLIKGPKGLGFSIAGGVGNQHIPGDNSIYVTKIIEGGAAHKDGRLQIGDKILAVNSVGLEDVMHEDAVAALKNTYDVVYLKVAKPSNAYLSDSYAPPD

NHERF3_4, Q5T2W1 = biological target: T7, NHERF3_4, Q5T2W1
T7 sequence (Q5T2W1 373-468, limits assumed, looked up): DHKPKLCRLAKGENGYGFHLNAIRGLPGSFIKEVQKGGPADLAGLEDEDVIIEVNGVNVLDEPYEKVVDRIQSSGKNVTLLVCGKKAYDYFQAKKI

MAGI3_2, Q5TCQ9 = biological target: MAGI3_2, Q5TCQ9
Chain of MAGI3_2, Q5TCQ9 (Q5TCQ9 398-503): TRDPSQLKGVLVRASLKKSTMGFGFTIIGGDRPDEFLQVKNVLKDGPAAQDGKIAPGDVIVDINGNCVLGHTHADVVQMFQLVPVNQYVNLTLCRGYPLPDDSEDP

GRIP2_3, Q9C0E4 = biological target: GRIP2_3, Q9C0E4
Chain of GRIP2_3, Q9C0E4 (Q9C0E4 238-339): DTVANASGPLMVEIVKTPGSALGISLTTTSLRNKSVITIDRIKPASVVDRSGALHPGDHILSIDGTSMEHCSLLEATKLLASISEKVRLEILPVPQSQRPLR

DLG4_3, P78352 = biological target: DLG4_3, P78352
Chain of DLG4_3, P78352 (P78352 306-403): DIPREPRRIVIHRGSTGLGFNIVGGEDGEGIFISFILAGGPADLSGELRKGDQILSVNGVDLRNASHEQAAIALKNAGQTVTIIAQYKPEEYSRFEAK

DLG3_3, Q92796 = biological target: T8, DLG3_3, Q92796
T8 sequence (Q92796 374-475, limits assumed, looked up): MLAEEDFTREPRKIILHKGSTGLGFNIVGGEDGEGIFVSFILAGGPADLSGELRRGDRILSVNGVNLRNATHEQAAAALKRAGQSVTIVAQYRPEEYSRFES

DFNB31_2, Q9P202 = biological target: T9, DFNB31_2, Q9P202
T9 sequence (Q9P202 274-371, limits assumed, looked up): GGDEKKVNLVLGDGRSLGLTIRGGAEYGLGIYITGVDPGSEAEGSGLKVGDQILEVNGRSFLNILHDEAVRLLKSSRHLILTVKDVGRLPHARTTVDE

ARHGAP21, Q5T5U3 = biological target: T10, ARHGAP21, Q5T5U3
T10 sequence (Q5T5U3 45-169, limits assumed, looked up): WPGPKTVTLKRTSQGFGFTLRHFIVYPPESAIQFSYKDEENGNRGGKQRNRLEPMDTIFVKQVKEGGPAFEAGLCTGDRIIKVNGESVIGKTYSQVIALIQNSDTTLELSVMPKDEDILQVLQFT

FRMPD4, Q14CM0 = biological target: FRMPD4, Q14CM0
Chain of FRMPD4, Q14CM0 (Q14CM0 67-160): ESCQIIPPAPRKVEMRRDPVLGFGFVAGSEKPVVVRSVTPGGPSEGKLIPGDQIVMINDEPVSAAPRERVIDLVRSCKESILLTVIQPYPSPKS

GORASP2, Q9H8Y8 = biological target: GORASP2, Q9H8Y8

Chain of LNX1_2, Q8TBB1 (Q8TBB1 371-470): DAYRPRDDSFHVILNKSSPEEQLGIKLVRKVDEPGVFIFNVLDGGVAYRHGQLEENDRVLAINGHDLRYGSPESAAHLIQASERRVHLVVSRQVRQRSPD

QRPYRRESEI [KCNJ12, Q14500]
pKd (LNX1_2, Q8TBB1): below the threshold
pKd (SYNJ2BP, P57105): 5.17
pKd (NHERF3_1, Q5T2W1): below the threshold
pKd (SCRIB_1, Q14160): 3.83
pKd (DLG5_1, Q8TDM6): below the threshold
pKd (FRMPD2_2, Q68DX3): below the threshold
pKd (SNX27, Q96L92): below the threshold
pKd (GRIP2_6, Q9C0E4): below the threshold
pKd (RHPN1, Q8TCX5): 3.5
pKd (GIPC2, Q8TF65): below the threshold
pKd (NHERF4_4, Q86UT5): below the threshold
pKd (MAST2, Q6P0Q8): 4.42
pKd (APBA3_1, O96018): below the threshold
pKd (DLG4_1, P78352): 4.22
pKd (LNX2_3, Q8N448): below the threshold
pKd (DLG1_2, Q12959): 4.61
pKd (LRRC7, Q96NW7): below the threshold
pKd (DLG4_2, P78352): 4.56
pKd (NHERF3_4, Q5T2W1): below the threshold
pKd (MAGI3_2, Q5TCQ9): 4.75
pKd (GRIP2_3, Q9C0E4): below the threshold
pKd (DLG4_3, P78352): 4.31
pKd (DLG3_3, Q92796): 4.32
pKd (DFNB31_2, Q9P202): below the threshold
pKd (ARHGAP21, Q5T5U3): below the threshold
pKd (FRMPD4, Q14CM0): below the threshold
pKd (GORASP2, Q9H8Y8): 3.74

GRLLGLETNV [ARHGEF26, Q96DR7]
pKd (LNX1_2, Q8TBB1): below the threshold
pKd (SYNJ2BP, P57105): 4.86
pKd (NHERF3_1, Q5T2W1): below the threshold
pKd (SCRIB_1, Q14160): 4.45
pKd (DLG5_1, Q8TDM6): below the threshold
pKd (FRMPD2_2, Q68DX3): 4.22
pKd (SNX27, Q96L92): 4.49
pKd (GRIP2_6, Q9C0E4): below the threshold
pKd (RHPN1, Q8TCX5): 4.48
pKd (GIPC2, Q8TF65): below the threshold
pKd (NHERF4_4, Q86UT5): below the threshold
pKd (MAST2, Q6P0Q8): 5.35
pKd (APBA3_1, O96018): below the threshold
pKd (DLG4_1, P78352): 4.68
pKd (LNX2_3, Q8N448): below the threshold
pKd (DLG1_2, Q12959): 5.18
pKd (LRRC7, Q96NW7): below the threshold
pKd (DLG4_2, P78352): 4.85
pKd (NHERF3_4, Q5T2W1): below the threshold
pKd (MAGI3_2, Q5TCQ9): 4.68
pKd (GRIP2_3, Q9C0E4): below the threshold
pKd (DLG4_3, P78352): 3.8
pKd (DLG3_3, Q92796): 4.23
pKd (DFNB31_2, Q9P202): below the threshold
pKd (ARHGAP21, Q5T5U3): below the threshold
pKd (FRMPD4, Q14CM0): below the threshold
pKd (GORASP2, Q9H8Y8): 3.97
